Values quoted from earlier work, collected in patent US20200069786A1, “COMPOSITION AND PROCESS FOR PREPARING VACCINE” (TREOS BIO ZRT., priority 2018, published 2020).
Where two headings read alike, the source gives them in different places.

Tested on: TSA
Conditions: cited from earlier work
[1] = TSA expression rate in Cervical cancer
[2] = TSA expression rate in HEAD and NECK
[3] = TSA expression rate in MELANOMA
[4] = TSA expression rate in PROSTATE cancer
[5] = TSA expression rate in BLADDER cancer
[6] = TSA expression rate in Esophageal
[7] = TSA expression rate in GASTRIC cancer
[8] = TSA expression rate in LEUKEMIAS
[9] = TSA expression rate in PEDIATRIC
[10] = TSA expression rate in LUNG cancer

Row | Substance | TSA Expression Rate (ER) (BREAST) [%] | TSA Expression Rate (ER) (OVARIAN) [%] | TSA Expression Rate (ER) (THYROID) [%] | Expression Rate (ER) % (TSA expression rate in CRC) [%] | Expression Rate (ER) % [2] [%] | Expression Rate (ER) % [3] [%] | Expression Rate (ER) % [4] [%] | Expression Rate (ER) % [5] [%] | TSA Expression Rate (ER) (BRAIN) [%] | further results
1 | LDHC | 35 | 43 | 25 | 15 | 0 | 44 | 38 | – | – | TSA Expression Rate (ER) (LUNG): 29%; Expression Rate (ER) % [1]: 83%; Expression Rate (ER) % (TSA expression rate in Kidney): 57%
2 | MAGE-A10 | 34 | 38 | 2 | 3 | 12 | 45 | 10 | 28 | – | TSA Expression Rate (ER) (HCC): 15%; TSA Expression Rate (ER) (LUNG): 24%; TSA Expression Rate (ER) (PANCREATIC): 1%; Expression Rate (ER) % [1]: 0%; Expression Rate (ER) % [6]: 27%; Expression Rate (ER) % [7]: 30%; Expression Rate (ER) % (TSA expression rate in Kidney): 1%; Expression Rate (ER) % [8]: 0%; Expression Rate (ER) % [9]: 33%
3 | MPHOSPH1 | – | – | – | – | – | – | – | 90 | – | –
4 | MSLN | – | – | – | – | – | – | – | – | – | TSA Expression Rate (ER) (PANCREATIC): 96%
5 | MUC-1 | – | – | – | – | – | – | 34 | – | – | –
6 | NKX3.1 | – | – | 0 | – | – | – | 70 | – | – | –
7 | OIP5 | – | – | – | – | 12 | – | – | – | – | Expression Rate (ER) % [7]: 48%
8 | PRAME | 49 | 59 | 60 | 4 | 61 | 90 | 10 | 19 | 56 | TSA Expression Rate (ER) (LUNG): 63%; Expression Rate (ER) % [7]: 21%; Expression Rate (ER) % (TSA expression rate in Kidney): 40%; Expression Rate (ER) % [8]: 23%; Expression Rate (ER) % [9]: 75%
9 | SOX-6 | – | – | – | – | – | – | – | – | 60 | –
10 | SPINLW1 | – | – | – | – | – | – | – | – | 47 | –
11 | SSX-1 | 9 | 2 | 0 | 2 | 40 | 25 | 7 | 7 | 0 | TSA Expression Rate (ER) (HCC): 69%; TSA Expression Rate (ER) (PANCREATIC): 0%; Expression Rate (ER) % [1]: 4%; Expression Rate (ER) % [6]: 0%; Expression Rate (ER) % [7]: 13%; Expression Rate (ER) % (TSA expression rate in Kidney): 0%; Expression Rate (ER) % [8]: 31%; Expression Rate (ER) % [10]: 8%; Expression Rate (ER) % (TSA expression rate in LYMPHOMAS): 6%; Expression Rate (ER) % [9]: 76%
12 | SSX-7 | – | – | – | – | – | – | – | – | 0 | –
13 | SYCE1 | – | – | – | – | – | – | – | – | – | Expression Rate (ER) % [10]: 11%
14 | TDRD4 | – | – | – | – | – | – | – | – | – | TSA Expression Rate (ER) (HCC): 14%
15 | TEX15 | 0 | – | 0 | 0 | 11 | 27 | 13 | 21 | – | TSA Expression Rate (ER) (LUNG): 21%; Expression Rate (ER) % [6]: 20%; Expression Rate (ER) % (TSA expression rate in Kidney): 33%
16 | TSGA10 | 70 | 35 | – | 5 | – | 25 | 15 | 38 | 83 | TSA Expression Rate (ER) (HCC): 20%
17 | WT1 | 7 | 63 | 97 | 91 | – | – | – | – | 81 | TSA Expression Rate (ER) (HCC): 86%; TSA Expression Rate (ER) (PANCREATIC): 72%; Expression Rate (ER) % [1]: 5%; Expression Rate (ER) % [6]: 88%
